Reference: patent US20110008814A1

Legend:
[1] = biological target: mouse IgG, anti-human transferrin monoclonal antibody (mfd. by BIO MATRIX RESEARCH, INC.); test: human transferrin sandwich ELISA, 1 ng/ml transferrin, luminol emission; reference Comparative Example 7
[2] = biological target: mouse IgG, anti-human transferrin monoclonal antibody (mfd. by BIO MATRIX RESEARCH, INC.); test: human transferrin sandwich ELISA, 100 ng/ml transferrin, ABTS; reference Comparative Example 3
[3] = biological target: mouse IgG, anti-human transferrin monoclonal antibody (mfd. by BIO MATRIX RESEARCH, INC.); test: human transferrin sandwich ELISA, 1 ng/ml transferrin, luminol emission
[4] = biological target: mouse IgG, anti-human transferrin monoclonal antibody (mfd. by BIO MATRIX RESEARCH, INC.); test: human transferrin sandwich ELISA, 100 ng/ml transferrin, luminol emission
[5] = biological target: mouse IgG, anti-human transferrin monoclonal antibody (mfd. by BIO MATRIX RESEARCH, INC.); test: direct ELISA on immobilized mouse IgG, ABTS; reference Comparative Examples 1 and 2
[6] = biological target: mouse IgG, anti-human transferrin monoclonal antibody (mfd. by BIO MATRIX RESEARCH, INC.); test: direct ELISA, mouse IgG immobilized from 10 ng/ml, about 0.8 µg/ml secondary antibody, ABTS
[7] = biological target: mouse IgG, anti-human transferrin monoclonal antibody (mfd. by BIO MATRIX RESEARCH, INC.); test: human transferrin sandwich ELISA, 100 ng/ml transferrin, 375 ng/ml labeled antibody, ABTS
[8] = biological target: mouse IgG, anti-human transferrin monoclonal antibody (mfd. by BIO MATRIX RESEARCH, INC.); test: human transferrin sandwich ELISA, 100 ng/ml transferrin, luminol emission; reference Comparative Examples 6 to 8
[9] = biological target: mouse IgG, anti-human transferrin monoclonal antibody (mfd. by BIO MATRIX RESEARCH, INC.); test: direct ELISA, mouse IgG immobilized from 100 ng/ml, about 0.8 µg/ml secondary antibody, ABTS
[10] = biological target: mouse IgG, anti-human transferrin monoclonal antibody (mfd. by BIO MATRIX RESEARCH, INC.); test: human transferrin sandwich ELISA, 1 ng/ml transferrin, luminol emission; reference horseradish POD-labeled antibodies
[11] = biological target: mouse IgG, anti-human transferrin monoclonal antibody (mfd. by BIO MATRIX RESEARCH, INC.); test: human transferrin sandwich ELISA, 100 ng/ml transferrin, 400 ng/ml labeled antibody, ABTS

fold of initial stage emission value against the horseradish POD-labeled antibody [1] | fold of absorbance against the horseradish POD-labeled antibody [2] | initial stage emission value [3] | initial stage emission value [4] | fold of absorbance against the horseradish POD-labeled antibody [5] | absorbance at 405 nm [6] | absorbance at 405 nm [7] | fold of initial stage emission value against the horseradish POD-labeled antibodies [8] | absorbance at 405 nm [9] | fold of initial stage emission value against the horseradish POD-labeled antibodies [10] | absorbance at 405 nm [11] | Substance
8 times | 2.2 times | 800000 RLU | 4.2e+06 RLU | 1.3 to 1.4 times | 0.4 | 1 | > 18 times | 1.9 |  |  | POD-labeled anti-mouse Fab′ (goat anti-mouse IgG (H+L) antibody, Bethyl A90-116A, pepsin-digested and reduced to Fab′, labeled with maleimidated POD)
 |  | 300000 RLU | 3.5e+06 RLU |  |  |  | > 14 times |  | > 3 times |  | POD-labeled anti-mouse IgG (goat anti-mouse IgG (H+L) antibody, Bethyl A90-116A, reduced and labeled with maleimidated POD)
 |  |  |  |  | 0.3 |  |  | 1.4 |  | 0.45 | Peroxidase-conjugated AffiniPure F(ab′)2 Fragment Goat Anti-mouse IgG (H+L) (mfd. by Jackson ImmunoResearch Labs.)
 |  | 100000 RLU |  |  | 0.3 |  |  | 1.4 |  |  | Peroxidase-conjugated AffiniPure Goat Anti-mouse IgG (H+L) (mfd. by Jackson ImmunoResearch Labs.) (antibody)
